In the DeepSol protein solubility set:

assay: soluble on expression in E. coli; label from the status in PepcDB or PDB records

Q: Which “soluble on expression in E. coli” value does the source give for “MEDYEGKFSPSELKLKGIHTSTTFWTVGMIVQQYKNGHLVIPKIQRGYVWNEEKARRFIMSLLQGFPIPPIFIIELSGKFYVVDGQQRIRTILWFLGEDNELLEKLGPLRVPIKELAENYNEYGVTNLSEAIIKKIIFGNHPKEFNYKYFTKDFRQYFESLSIPVQHISISSGKEYILTDIFLRINQGSVKLSAMELWRVYYGKDIEEYFHKLNELARYTVAKIYEVSNGKISRQKLERFRIDEFILTFDVLINGLITPPNYIPKDAKLGAVIFSQKTTLKKVKIFVLENRRKVFKNNKGELKKFLDYLEREYKEILKMITYVLGEFTFRRPTIGNECQYALIRPSGNDINEAVFLYEVAIFKLLKDNGHSELIYENKDFIKHVILTSLIENDELFSRSTSTFRSVANKLELAKLTYKKIITKEDNITKDNLKRLLYEKFRASRVSNPVCPYCKEPISDISVADLAHIRPLAFGGQTYIHNLTLAHSTCNRRFGVRDISQYINRC” here?
A: The value was “soluble”.

Q: For “MEEDNQQDQNNQYVIYHPFFSEGCHFYFIISCTNSFIRVALKIGLIGDSQIGKTSLMVKYVEGSFDEDYIQTLGVNFMDKKIQIRNTTITFSIWDLGGQKEFINMLPLVSNDAVAILFMFDLTRKSTLNSIKEWYRQVRGFNKTAIPFLVGTKYDQFIDLSFQDQIEITQQAKKFGSAMKAPVIFCSTSHSINVQKIFKIILSKAFDLKLNLDEIVNVGEPILIYK”, which “soluble on expression in E. coli” value is on record?
A: Its value is “not soluble”.

Q: With “MEEKTILAQILQVLDLYAADMRKQFEALHEKFDSLQRQVQALNEKTDEMDKRIEEMDGRFERQIAQLERTVNERFERLEAKLGHIRVELVETQETVDFHSVKIAQHDRKIRHLLHAR” as the sequence, how does the “soluble on expression in E. coli” value read?
A: The value was “not soluble”.

Q: Which “soluble on expression in E. coli” value does the source give for “MEESPTKTFKCPKCWNKFENKPKLITHVDLECKHKYFRCELCDFKSTQKTGLTSHYHGHIRQSNVIHCPYCKKKKTFKSRNNLMVHVHHYHPTHINEMKQANLESAKEEKMKTMLEKQAKEAHEFEISQPAVFEKDFASYDLPMFSQCPPMNGIPVSTPIEYPYSQNPYQDHTPFDSYPYPNFHPQQLPLPTFENNLPDIATYFDL” here?
A: Its value is “not soluble”.

Q: Which “soluble on expression in E. coli” value does the source give for “MEFDKLYGPSNVENRLVQVKATTAEAIHFNRQIQPIIENRCVVCHGCYDAPCQLKMESRAGIERGANKAMVYNGERLLTANISASLTKLTELKRDNLEPLRQQGYFPVLNERQQTEQANTQSSLFYQMLQLKKQHPLPSEPILNESFDVALDRSQQCPTIEEFEQYKDKYPLGGMPYALPALSTTEHDQLTDWIARGAIMPDSVPPNAKEQQMINRWEKLLNGSSAKEQLIARYLFEHLYLANLYFDKAQSSYFKLVRSSSPSGEKVAVITTRRPFDSPYADGSTDAIVDKPQVYYRLIKHNDTIIAKRHMPYPFGESKLARISELFYQPDYPVTTLPDYQLANASNPFKTFQAIPDKARYQFLLDQAQFSIMNFIKGPVCRGQIALNVIEDNFWVFFLSPNNFDHYPSEQFIKANTELLQLPAGTSDKSLSLLYWRQYAKSQQEYVKNKLAYVEGLNLQPNQLNLDLIWSGKGNPNASLTVFRHFDSASVLQGFVGPTPKTAWLISYPLLERIHYLLVAGFDVYGSVSHQLKTRLYMDFLRMEAESNFISFLPKDERKAIHEYWYRETGDDIKDYIFSDGFYQLPETGMNYQSNKHQEELFQLVGQHTKNTNVSQFNLSSLAQSSADKIIANLSQLPNESVALLPQVSYVMVSNGDDNQVYSLINNSAHSNVAHLFSEENRRLPREDNLAILRGVVGTYPNAFFKVEQAQLSEFVSNLNAIKTEQDYRKLKDQFAIRRTNPKFWIFADELHAWYKTNQPKSAGLLDFNRLENRLEHHHHHH” here?
A: Its value is “not soluble”.

Q: For “MEFKNTKKDRLSDLENRFENANKHETNKHEKEDRKKAHTLYISEKVMNSVEEYLNEFGAFRENKSVFVQDAIIFYLEYKKKEMKQMLLDKASKL”, which “soluble on expression in E. coli” value is on record?
A: The value was “not soluble”.

Q: With “MEFTGKIIAILPPRGGVSKTSGNEWKSQEFVIENHDQYPRKMCFDVFGADKIEQFNIQMGEELTVSFDVDARQWNDRWFNSIRAWKVERVGAGAPMTPGAPVPPPAPSATPDFTMGDAKDDLPF” as the sequence, how does the “soluble on expression in E. coli” value read?
A: Its value is “not soluble”.

Q: For “MEGGSITPGEDKPEIQSPIPPNQIFILSGQSNMAGRGGVFKDHHNNRWVWDKILPPECAPNSSILRLSADLRWEEAHEPLHVDIDTGKVCGVGPGMAFANAVKNRLETDSAVIGLVPCASGGTAIKEWERGSHLYERMVKRTEESRKCGGEIKAVLWYQGESDVLDIHDAESYGNNMDRLIKNLRHDLNLPSLPIIQVAIASGGGYIDKVREAQLGLKLSNVVCVDAKGLPLKSDNLHLTTEAQVQLGLSLAQAYLSNFC”, which “soluble on expression in E. coli” value is on record?
A: The value was “soluble”.

Q: With “MEGMKGAVLITGASRGIGEATARLLHAKGYRVGLMARDEKRLQALAAELEGALPLPGDVREEGDWARAVAAMEEAFGELSALVNNAGVGVMKPVHELTLEEWRLVLDTNLTGAFLGIRHAVPALLRRGGGTIVNVGSLAGKNPFKGGAAYNASKFGLLGLAGAAMLDLREANVRVVNVLPGSVDTGFAGNTPGQAWKLKPEDVAQAVLFALEMPGHAMVSEIELRPTRPTSGPR” as the sequence, how does the “soluble on expression in E. coli” value read?
A: The value was “soluble”.

Q: Which “soluble on expression in E. coli” value does the source give for “MEGVQEVEIDAPLSGWHPAEGEDASFSQSINYPASSVNMADDQNISAQIRGKIKNYAAAGKVQQGRLVVNGASMPQRIESDGSFARPYIFTEGSNSVQVISPDGQSRQKMQFYSTPGTGTIRARLRLVLSWDTDNTDLDLHVVTPDGEHAWYGNTVLKNSGALDMDVTTGYGPEIFAMPAPVHGRYQVYINYYGGRSETELTTAQLTLITDEGSVNEKQETFIVPMRNAGELTLVKSFDWLEHHHHHH” here?
A: Its value is “soluble”.

Q: With “MEHRPVLETESNLVITLVADIVAAYVSNNSIRPTEVPSLIADVHAAFRKAGNADLTEVEVEKQRPAVNPKRSIFPDYLICLEDGKKFKSLKRHLMTHYGMLPEEYREKWQLDSSYPMVAPNYAKARSALAKEMGLGRKSKRKKTK” as the sequence, how does the “soluble on expression in E. coli” value read?
A: Its value is “not soluble”.

Q: Which “soluble on expression in E. coli” value does the source give for “MEIIFYHPTFNAAWWVNALEKALPHARVREWKVGDNNPADYALVWQPPVEMLAGRRLKAVFVLGAGVDAILSKLNAHPEMLDASIPLFRLEDTGMGLQMQEYAVSQVLHWFRRFDDYQALKNQALWKPLPEYTREEFSVGIMGAGVLGAKVAESLQAWGFPLRCWSRSRKSWPGVESYVGREELRAFLNQTRVLINLLPNTAQTVGIINSELLDQLPDGAYVLNLARGVHVQEADLLAALDSGKLKGAMLDVFSQEPLPQESPLWRHPRVAMTPHIAAVTRPAEAIDYISRTITQLEKGEPVTGQVDRARGY” here?
A: The value was “not soluble”.

Q: For “MEIIHLSEIDSTNDYAKELAKEGKRNFIVLADKQNNGKGRWGRVWYSDEGGLYFSMVLDSKLYNPKVINLLVPICIIEVLKNYVDKELGLKFPNDIMVKVNDNYKKLGGILTELTDDYMIIGIGINVNNQIRNEIREIAISLKEITGKELDKVEILSNFLKTFESYLEKLKNKEIDDYEILKKYKKYSITIGKQVKILLSNNEIITGKVYDIDFDGIVLGTEKGIERIPSGICIHVR”, which “soluble on expression in E. coli” value is on record?
A: The value was “soluble”.

Q: Which “soluble on expression in E. coli” value does the source give for “MEIKPTPSPPEERTIYVANFSEEVDEELLEELFIQAGPVVKVILRDVRDSNAKFALVEFEDELSVLFAIELMNGVRLFNQELQVKPRNGTNQEELYKRKKGEIEERVRSVAAPDRDGRRDSYRDDRNRNRNGNNRDSWQQQQPPRHHRQYDPLPPPPPPPLMGGSGGHWRSGGERGPPQYSTPQMLPHQHFVNQMMQQQINRSAPPYNGRHQNSTPHRHHDRHGYDRSSSRHHRNDDRRRSAHFLDIRKFQAPPTSWAFGNFQCFFWNLFSKITYLQEVGGA” here?
A: The value was “not soluble”.

Q: For “MEILTLEQQKSFIKAIDGHKLEVLFLLALGTGLRLGELLGLKWFDIDFKKSNLTVKRTLQRTYFIDKTGNRELKVLEQGPKTSNSYRTVPIPKDVLNKLKEHKVNQNTDILKAGELYINNNYVFCNELGIPIDDKRPLRNLKSILNSLNIEPIKFHGLRKTYATRLFENDVPPKTVQVLMGHYDISITLNIYTQVMEDKKVEAVEKLDKIFSLEHHHHHH”, which “soluble on expression in E. coli” value is on record?
A: Its value is “soluble”.

Q: With “MEIPTAKPQKEHEFLNRIVGDWIMTASSGHEAYDPNDPEQVFIEKVRSIGGLWIIGEGTGKMPDGTSMTAVITVGFDPAKGNFVGTWVGSMMTNLWVYKGWLEEDGKTLTLEAEGPAFDGSGDTATYHDVLVLHDDNHRSFSGSVKQPDGTFKTFMTSEFRRKT” as the sequence, how does the “soluble on expression in E. coli” value read?
A: The value was “soluble”.

Q: For “MEKAADLQDTASLTLKFKFNPKLGIDNPVLSLAEDHDPYDPWSLERPRFCLLSKEEGKSFGFHLQQELGRAGHVVCRVDPGTSAQRQGLQEGDRILAVNNDVVEHEDYAVVVRRIRASSPRVLLTVLARHAHDVARAQLGEDAHLCPTLGPGVRPRLCHIVKDEGGFGFSVTHGNQGPFWLVLSTGGAAERAGVPPGARLLEVNGLWQSGQQVTLLVAGPEVEEQCRQLGLPLAAPLAEGWALPTKPRCLHLEKGPQGFGFLLREEKGLDGRPGQFLWEVDPGLPAKKAGMQAGDRLVAVAGESVEGLGHEETVSRIQGQGSCVSLTVVDPEADRFFSMVRLSPLLFLENTEAPASPQGSSSASLVETEDPSLEDTSVPSVPLGSRQCFLYPGPGGSYGFRLSCVASGPRLFISQVTPGGSAARAGLQVGDVILEVNGYPVGGQNDLERLQQLPEAEPPLCLKLAARSLRGLEAWIPPGAAEDWALASDLL”, which “soluble on expression in E. coli” value is on record?
A: The value was “soluble”.

Q: Which “soluble on expression in E. coli” value does the source give for “MEKDIKRQIQILEIITSEEKWFTTIEISKILRCCNKTIMKDISFIKDFLPEDWHIKIKKGKGVRIYLPYNKHRNEITFLLFRESLTFRILQHLFERETKTIATLAERLYIQVPSILPALKRVENYLKKFGLKLRKKPLRLEGDEVRIMIMYLDLYLKSYNDTEWPFEKLKKEVIFQYLGTLEESLGISLHVVSKRHLSFFIAILLKRKQQGYKVQLNRKFLYFNTETPDYVKIGRIFEKLEREFGVSLTVQDKILLTISIKSSKYVYKDINKEKEESVQYFKEGNLSIYELVKDFINSLEEKLKVDLISDEEFIFALVDYFKRTIYHLQYLCMFERPQKQTIQYMQTEHSETFSAVKEVYTEFVKKNEIADYVSVEEIAKVTMYIEASRLRYTSNYKKVLLVTGESESWAEYLAATLAKRFGDKIQISTVFFAKKSDHDVNADFIISTIPLDLGSTPIICINSIPTERDYTNIQYYLDLQDG” here?
A: The value was “not soluble”.

Q: Which “soluble on expression in E. coli” value does the source give for “MEKGYRLLERIELGEPKNCYEKVVSHKHLIESIHLHLADLLNTHSGNAMIDSEYGLPDFNDVLSNNTNLVRHIQKNITATIERFEPRLLNVEVHYREDHHNPLQLGFGIRGEVSHNGGKVPMSIDVYMGTD” here?
A: The value was “not soluble”.

Q: For “MEKISDLIECIAYEKNLPKEMISKVIQGCLLKMAQNELDPLARYLVVEENKQLQLIQLVEVLEDGDERLVNDPSKYISLSKAKEMDPSVKIKDELSYSLSLESMKQGAINRLFKDLQYQLEKALEDSHFEAFQKRLNSVLMGQVILVDHNQNTFIEIEQQFQGVLSMRHRIKGESFKVGDSIKAVLTQVKRTKKGLLLELSRTTPKMLEALLELEVPEIKDKEIEIIHCARIPGNRAKVSFFSHNARIDPIGAAVGVKGVRINAISNELNKENIDCIEYSNVPEIYITLALAPAKILSVEIKKIPIEELNAEEKESIQERFIVNNHLQKAKVRLLDIEKSKAIGKGGVNVCLASMLTGYHIEFETIPSVKENAENESEKETPKVGVEALESLFKNLEHHHHHH”, which “soluble on expression in E. coli” value is on record?
A: The value was “soluble”.

Q: For “MEKKTIVLGVIGSDCHAVGNKILDHSFTNAGFNVVNIGVLSSQEDFINAAIETKADLICVSSLYGQGEIDCKGLREKCDEAGLKGIKLFVGGNIVVGKQNWPDVEQRFKAMGFDRVYPPGTSPETTIADMKEVLGVE”, which “soluble on expression in E. coli” value is on record?
A: The value was “soluble”.

Q: With “MEKLVAYKRMPLWNKQTMPEAVQQKHNTKVGTWGKITVLKGALKFIELTEEGEVLAEHLFEAGADNPMAQPQAWHRVEAATDDVEWYLEFYCKPEDYFAKKYNTNPVHSEVLEAMQTVKQGKALDLGCGQGRNSLFLAQQDFDVTAVDQNGLALEILQSIVEQEDLDMPVGLYDINSASIEQEYDFIVSTVVLMFLQADRIPAIIQNMQEKTSVGGYNLIVCAMDTEDYPCSVNFPFTFKEGELADYYKDWELVKYNENPGHLHRRDENGNRIQLRFATLLAKKIKLEHHHHHH” as the sequence, how does the “soluble on expression in E. coli” value read?
A: Its value is “soluble”.
